Measurements published in the supplement of paper PMC9732359.
± gives the uncertainty stated by the source.

experiment: protein stability index of a GFP-peptide fusion (yeast GPS) (PSI 1-4); higher = more stable; sorted into four equal gates, so the index is relative within each strain; conditions: pdr5∆
Outline: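 Each library plasmid carries Cherry plus GFP with a tiled 17-residue yeast protein peptide fused downstream, and the pooled library was carried in yeast. Mid-log cultures in leucine-free medium were sorted into four equal gates by GFP/Cherry ratio. Reads from Illumina sequencing of PCR-amplified plasmids from each gate were assigned to strains by barcodes. Per peptide, the protein stability index was computed as the summed products of gate read frequency and gate number.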

Sequence | protein stability index
REMRRKVYAQLLESYKT [RPN7] | 2.96 ± 0.14
RETNDDIWRVAGKFELL [SNF2] | 2.26 ± 0.065
RFELHGDMTNSDAQSNL [REC8] | 3.58 ± 0.13
RFRKLTSQEINDRLEAL [PRE8] | 3.01 ± 0.089
RFTPGSFTNYITRSFKE [RPS0A] | 3.36 ± 0.1
RGAHVEKTMVKKNLGRL [PRP8] | 3.29 ± 0.16
RGPRNSREAVRHFGMGP [RPL18A] | 2.86 ± 0.18
RGPYLVIVPLSTLSNWS [SNF2] | 2.32 ± 0.062
RGRSVMKESVVEINSSE [ESC2] | 2.83 ± 0.14
RGTLTKNLKHIDVTFTK [RPL9A] | 3.25 ± 0.067
RGYWGTNLGQPHSLATK [RPS2] | 3.18 ± 0.16
RHGFNRSNTGALMRCSF [RPO21] | 3.01 ± 0.064
RHLRRTGKVSEFISIYS [RET1] | 2.05 ± 0.13
RIENPEKYAAAAPAATS [RPP0] | 3.22 ± 0.11
RILKLGTQLATLKNRGL [YGR119C/NUP57] | 2.57 ± 0.068
RIRKLTGQNFLTSNISS [REC8] | 1.79 ± 0.05
RKKTPAGDWKYDRQLSS [FAS2] | 2.43 ± 0.092
RKNDNANDHDESIDVDM [SMC3] | 2.72 ± 0.23
RKNRYVILQSDLEEAYA [RPT3] | 2.23 ± 0.15
RKSAPVDSWDREFLKVD [SKP1] | 3.27 ± 0.094
RKTWKRQNTLSLWRYRK [RPL15A] | 3.1 ± 0.074
RKVEKEKNEKEREIKRR [UBP6] | 3.27 ± 0.054
RKWMEEKADYERELISN [YIL149C/MLP2] | 3.35 ± 0.086
RKYDLFQNLELETEQLS [SMC2] | 3.1 ± 0.076
RKYSFNYSSLPSPYKTT [YAR002W/NUP60] | 2.8 ± 0.05
RLAKSTENEIPNLIEKM [BRR2] | 1.5 ± 0.052

Sequence | protein stability index
RLDNLQDIKKAKRVENF [DSN1] | 1.42 ± 0.039
RLIVDPNIADYITAKNN [PRP8] | 2.22 ± 0.066
RLKGDIFCVGSGQTFAY [PRE2] | 1.77 ± 0.041
RLKVFEGIPPPYDKKKR [RPL16A] | 2.9 ± 0.094
RLKYALNGREVKAILMQ [RPS4A] | 1.39 ± 0.062
RLNENKKIGCYMFANLE [CSN12] | 3.14 ± 0.18
RMIPPRMVRSIMWQLLD [SSN3] | 1.68 ± 0.12
RMKSITSTSQKIPSASI [SNF5] | 3.18 ± 0.072
RMPMDFKGVIVKIVDKD [PRE1] | 3.11 ± 0.18
RMSSEEVNSLLLQVNKT [GRR1] | 3.13 ± 0.2
RNAALRAKAEAAEFRYK [SCL1] | 3.28 ± 0.072
RNAQAQREAAAEYAQLL [RPS6A] | 3.31 ± 0.2
RNDKTLELMDSKKTGQF [POP1] | 3.44 ± 0.06
RNEEILRDIGECENEIK [SMC2] | 2.94 ± 0.075
RNFKKANLVNKESDLLE [BRN1] | 1.58 ± 0.051
RNFLETVELQVGLKNYD [RPL1A] | 3.08 ± 0.079
RNFSLAIIDKNTGLTFK [PRE4] | 3.07 ± 0.071
RNHKHALHGTAKALAAA [RPL29] | 2.685 ± 0.017
RNISFSDNNSRIMSRNF [SWI1] | 2.85 ± 0.057
RNKRAVQLPILKIIYTG [YJL039C/NUP192] | 1.87 ± 0.048
RNNLPAKTFGASVRIFL [RPL33A] | 2.76 ± 0.054
RNPDIYTREFVEAIRRS [NUT2] | 2.15 ± 0.055
RNVNWIERLTKRQFNNS [ITC1] | 3.36 ± 0.15
RNVTIQLENADTGTLDT [RPN2] | 3.2 ± 0.082
RPKPVSPPCYIIDHIPG [SNF5] | 2.64 ± 0.096
